Numbered stars: 1 amine (or outer) side, 2 acyl side, 3 side chain; on linkers, the order of the positions; unused ones are H or OH. Bridge positions count the residues as written; N and C are the ends. Side chains are listed from the residue outwards. Ends that are not written are not given here. * marks the point of attachment. C20 diacid = O=C(O)CCCCCCCCCCCCCCCCCCC(=O)*; γGlu = O=C(O)[C@H](CCC(=O)[*:2])N[*:1]

Sequences and labels used below:
T1: rat calcitonin receptor (rat, UniProt P32214 25-516)
T1 construct: whole, on cells; In cell membranes prepared from transiently transfected BHK tk'ts 13 cells (Assay VIII); also called rCTR; rat calcitonin (a) receptor
T1 sequence (looked up): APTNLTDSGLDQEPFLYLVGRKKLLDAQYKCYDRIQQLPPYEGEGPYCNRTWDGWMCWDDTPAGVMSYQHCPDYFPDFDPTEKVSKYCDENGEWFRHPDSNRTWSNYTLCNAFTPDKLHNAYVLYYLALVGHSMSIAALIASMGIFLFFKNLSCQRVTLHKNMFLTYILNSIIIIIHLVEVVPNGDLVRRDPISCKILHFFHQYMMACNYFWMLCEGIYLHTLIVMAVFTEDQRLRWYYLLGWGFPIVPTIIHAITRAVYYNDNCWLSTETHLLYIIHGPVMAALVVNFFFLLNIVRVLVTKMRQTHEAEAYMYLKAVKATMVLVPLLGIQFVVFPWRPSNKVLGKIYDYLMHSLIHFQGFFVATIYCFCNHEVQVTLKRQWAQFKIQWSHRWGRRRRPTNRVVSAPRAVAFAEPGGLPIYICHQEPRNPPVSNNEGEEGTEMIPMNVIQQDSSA

T2: human calcitonin receptor (human, UniProt P30988 25-474)
T2 construct: whole, on cells; Cell membranes from the stably transfected cell line (Assay VII); also called hCTR; hCT
T2 sequence (looked up): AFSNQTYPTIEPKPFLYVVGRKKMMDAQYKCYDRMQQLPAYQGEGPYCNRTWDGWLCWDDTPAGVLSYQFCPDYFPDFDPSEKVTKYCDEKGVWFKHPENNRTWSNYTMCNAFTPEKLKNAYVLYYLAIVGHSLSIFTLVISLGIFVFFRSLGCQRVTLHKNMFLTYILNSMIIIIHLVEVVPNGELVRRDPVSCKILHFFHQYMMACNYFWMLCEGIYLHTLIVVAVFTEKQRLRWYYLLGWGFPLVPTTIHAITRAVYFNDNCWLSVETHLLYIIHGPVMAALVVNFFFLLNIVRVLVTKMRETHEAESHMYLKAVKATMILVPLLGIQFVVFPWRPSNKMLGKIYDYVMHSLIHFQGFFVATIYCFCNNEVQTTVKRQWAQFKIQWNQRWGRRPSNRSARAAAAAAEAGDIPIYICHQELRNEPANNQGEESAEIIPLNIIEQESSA

T3: rat amylin receptor (rat calcitonin receptor + rat RAMP 3) (rat, UniProt P32214 25-516; Q9JJ73 23-147)
T3 construct: whole, on cells; Receptor complex in cell membranes prepared from transiently transfected BHK tk'ts 13 cells (Assay VI); also called rAmylin-R; rat amylin 3(a) receptor
T3 sequence (looked up) 1: T1 sequence (looked up)
T3 sequence (looked up) 2: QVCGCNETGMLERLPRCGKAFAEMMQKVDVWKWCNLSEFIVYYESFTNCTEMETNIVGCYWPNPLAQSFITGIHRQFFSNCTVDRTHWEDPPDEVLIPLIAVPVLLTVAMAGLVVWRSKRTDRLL

B1: N^ε1-[(4S)-4-carboxy-4-(19-carboxynonadecanoylamino)butanoyl]-[Glu14,Arg17,Pro21,Pro27,His35]-h-amylin (peptide)
peptide: K([γGlu-C20 diacid])CNTATCATQRLAEFLRHSSPNFGAIPSSTNVGSHTY-NH2
modifications: disulfide 2-7; N-terminus assumed
SMILES: CC[C@H](C)[C@H](NC(=O)[C@H](C)NC(=O)CNC(=O)[C@H](Cc1ccccc1)NC(=O)[C@H](CC(N)=O)NC(=O)[C@@H]1CCCN1C(=O)[C@H](CO)NC(=O)[C@H](CO)NC(=O)[C@H](Cc1c[nH]cn1)NC(=O)[C@H](CCCNC(=N)N)NC(=O)[C@H](CC(C)C)NC(=O)[C@H](Cc1ccccc1)NC(=O)[C@H](CCC(=O)O)NC(=O)[C@H](C)NC(=O)[C@H](CC(C)C)NC(=O)[C@H](CCCNC(=N)N)NC(=O)[C@H](CCC(N)=O)NC(=O)[C@@H](NC(=O)[C@H](C)NC(=O)[C@@H]1CSSC[C@H](NC(=O)[C@@H](N)CCCCNC(=O)CC[C@H](NC(=O)CCCCCCCCCCCCCCCCCCC(=O)O)C(=O)O)C(=O)N[C@@H](CC(N)=O)C(=O)N[C@@H]([C@@H](C)O)C(=O)N[C@@H](C)C(=O)N[C@@H]([C@@H](C)O)C(=O)N1)[C@@H](C)O)C(=O)N1CCC[C@H]1C(=O)N[C@@H](CO)C(=O)N[C@@H](CO)C(=O)N[C@H](C(=O)N[C@@H](CC(N)=O)C(=O)N[C@H](C(=O)NCC(=O)N[C@@H](CO)C(=O)N[C@@H](Cc1c[nH]cn1)C(=O)N[C@H](C(=O)N[C@@H](Cc1ccc(O)cc1)C(N)=O)[C@@H](C)O)C(C)C)[C@@H](C)O
B2: N^ε1-[(4S)-4-carboxy-4-[[(4S)-4-carboxy-4-(19-carboxynonadecanoylamino)butanoyl]amino]butanoyl]-[Glu14,Arg17,Pro21,Pro27,Pro34,His35]-h-amylin (peptide)
peptide: K([γGlu-γGlu-C20 diacid])CNTATCATQRLAEFLRHSSPNFGAIPSSTNVGPHTY-NH2
modifications: disulfide 2-7; N-terminus assumed
SMILES: CC[C@H](C)[C@H](NC(=O)[C@H](C)NC(=O)CNC(=O)[C@H](Cc1ccccc1)NC(=O)[C@H](CC(N)=O)NC(=O)[C@@H]1CCCN1C(=O)[C@H](CO)NC(=O)[C@H](CO)NC(=O)[C@H](Cc1c[nH]cn1)NC(=O)[C@H](CCCNC(=N)N)NC(=O)[C@H](CC(C)C)NC(=O)[C@H](Cc1ccccc1)NC(=O)[C@H](CCC(=O)O)NC(=O)[C@H](C)NC(=O)[C@H](CC(C)C)NC(=O)[C@H](CCCNC(=N)N)NC(=O)[C@H](CCC(N)=O)NC(=O)[C@@H](NC(=O)[C@H](C)NC(=O)[C@@H]1CSSC[C@H](NC(=O)[C@@H](N)CCCCNC(=O)CC[C@H](NC(=O)CC[C@H](NC(=O)CCCCCCCCCCCCCCCCCCC(=O)O)C(=O)O)C(=O)O)C(=O)N[C@@H](CC(N)=O)C(=O)N[C@@H]([C@@H](C)O)C(=O)N[C@@H](C)C(=O)N[C@@H]([C@@H](C)O)C(=O)N1)[C@@H](C)O)C(=O)N1CCC[C@H]1C(=O)N[C@@H](CO)C(=O)N[C@@H](CO)C(=O)N[C@H](C(=O)N[C@@H](CC(N)=O)C(=O)N[C@H](C(=O)NCC(=O)N1CCC[C@H]1C(=O)N[C@@H](Cc1c[nH]cn1)C(=O)N[C@H](C(=O)N[C@@H](Cc1ccc(O)cc1)C(N)=O)[C@@H](C)O)C(C)C)[C@@H](C)O
B3: N^ε1-[(4S)-4-carboxy-4-[[(4S)-4-carboxy-4-(19-carboxynonadecanoylamino)butanoyl]amino]butanoyl]-[Glu14,Arg17,Pro21,Pro27,Pro34,Glu35,Pro37]-h-amylin (peptide)
peptide: K([γGlu-γGlu-C20 diacid])CNTATCATQRLAEFLRHSSPNFGAIPSSTNVGPETP-NH2
modifications: disulfide 2-7; N-terminus assumed
SMILES: CC[C@H](C)[C@H](NC(=O)[C@H](C)NC(=O)CNC(=O)[C@H](Cc1ccccc1)NC(=O)[C@H](CC(N)=O)NC(=O)[C@@H]1CCCN1C(=O)[C@H](CO)NC(=O)[C@H](CO)NC(=O)[C@H](Cc1c[nH]cn1)NC(=O)[C@H](CCCNC(=N)N)NC(=O)[C@H](CC(C)C)NC(=O)[C@H](Cc1ccccc1)NC(=O)[C@H](CCC(=O)O)NC(=O)[C@H](C)NC(=O)[C@H](CC(C)C)NC(=O)[C@H](CCCNC(=N)N)NC(=O)[C@H](CCC(N)=O)NC(=O)[C@@H](NC(=O)[C@H](C)NC(=O)[C@@H]1CSSC[C@H](NC(=O)[C@@H](N)CCCCNC(=O)CC[C@H](NC(=O)CC[C@H](NC(=O)CCCCCCCCCCCCCCCCCCC(=O)O)C(=O)O)C(=O)O)C(=O)N[C@@H](CC(N)=O)C(=O)N[C@@H]([C@@H](C)O)C(=O)N[C@@H](C)C(=O)N[C@@H]([C@@H](C)O)C(=O)N1)[C@@H](C)O)C(=O)N1CCC[C@H]1C(=O)N[C@@H](CO)C(=O)N[C@@H](CO)C(=O)N[C@H](C(=O)N[C@@H](CC(N)=O)C(=O)N[C@H](C(=O)NCC(=O)N1CCC[C@H]1C(=O)N[C@@H](CCC(=O)O)C(=O)N[C@H](C(=O)N1CCC[C@H]1C(N)=O)[C@@H](C)O)C(C)C)[C@@H](C)O

The first experiment addresses T1, rat calcitonin receptor. Kind of experiment: ratio of binding IC50s: rat calcitonin receptor (Assay VIII) over rat amylin receptor (Assay VI).
In the case of B1, the “Ratio rCT/rAmylin binding” value came out at 22.7.

Consider B2, for which the “Ratio rCT/rAmylin binding” value stood at 73.

Consider B3, for which the “Ratio rCT/rAmylin binding” value was found to be 10.6.

The next experiment has as its target T1, rat calcitonin receptor. Briefly: SPA competition binding, displacement of 125I-Calcitonin from membranes of BHK tk'ts 13 cells with rat calcitonin receptor (Assay VIII).
By IC50 is commonly meant the concentration at which inhibition is half-maximal. Turning to B1, the IC50 is 26.3 nM.

For B2, the IC50 came to 21 nM.

In the case of B3, the IC50 is 1.61 nM.

For another experiment, the target named is T2, human calcitonin receptor. Briefly: ratio of binding IC50s: human calcitonin receptor (Assay VII) over human amylin receptor (Assay V). As for the experimental part: The resulting pellet was resuspended, homogenized and centrifuged (20.000 rpm, 15 min) in a buffer containing 20 mM Na-HEPES and 0.1 mM EDTA (pH 7.4, buffer 2). The resulting pellet was resuspended in buffer 2 and protein concentration was measured (BCA protein Assay, Pierce). The homogenate was kept cold during the whole procedure. The membranes were kept at −80° C. until use. The assay was performed in a 384 well Optiplate (PerkinElmer) in a total volume of 40 ul. Membranes were mixed with SPA beads. Final concentration of membranes 35 ng/μL final and SPA beads was 0.05 mg/well. Test-compounds were dissolved in DMSO and further diluted in assay buffer (50 mM Hepes, pH 7.4, 1 mM CaCl2, 5 mM MgCl₂, 0.1% OA and 0.02% Tween20). […] The final mixture was incubated with shaking at 400 rpm for 120 min at 25° C. prior to centrifugation (1500 rpm, 10 min). Samples were analyzed on TopCounter™ (Packard). The IC₅₀ was calculated using (one site binding competition analysis) GraphPad Prism5 as a measure of receptor affinity.
Membranes were prepared in the following way; the cells were rinsed with PBS and incubated with Versene for approximately 5 min before harvesting. The cells were flushed with PBS and the cell-suspension was centrifuged for 5 min at 1000 rpm. Cells were homogenized (Ultrathurrax) in a buffer containing 20 mM Na-HEPES and 10 mM EDTA (pH 7.4) and centrifuged at 20.000 rpm for 15 min. The resulting pellet was resuspended, homogenized and centrifuged (20.000 rpm, 15 min) in a buffer containing 20 mM Na-HEPES and 0.1 mM EDTA (pH 7.4, buffer 2). The resulting pellet was resuspended in buffer 2 and protein concentration was measured (BCA protein Assay, Pierce). The homogenate was kept cold during the whole procedure. The membranes were kept at −80° C. until use. Assay was performed in a 384 well Optiplate (PerkinElmer) in a total volume of 40 ul. Membranes were mixed with SPA beads.
For B1, the “Ratio hCT/hAmylin binding” value was found to be 26.4.

Regarding B2, the “Ratio hCT/hAmylin binding” value is 27.3.

Regarding B3, the “Ratio hCT/hAmylin binding” value came to 0.4.

A further experiment has as its target T3, rat amylin receptor (rat calcitonin …). Kind of experiment: SPA competition binding, displacement of 125I-rat amylin from membranes of BHK tk'ts 13 cells with rat calcitonin receptor + rat RAMP 3 (Assay VI). How it is done:
The binding assay was performed using scintillation proximity assay (SPA) beads (RPNQ0001) from PerkinElmer and cell membranes from the Amylin 3(a)/CRE-luc cells (as described in Assay (II)) were used. Membranes were prepared in the following way; the cells were rinsed with PBS and incubated with Versene for approximately 5 min before harvesting. The cells were flushed with PBS and the cell-suspension was centrifuged for 5 min at 1000 rpm. Cells were homogenized (ultrathurrax) in a buffer containing 20 mM Na-HEPES and 10 mM EDTA (pH 7.4) and centrifuged at 20.000 rpm for 15 min. The resulting pellet was resuspended, homogenized and centrifuged (20.000 rpm, 15 min) in a buffer containing 20 mM Na-HEPES and 0.1 mM EDTA (pH 7.4, buffer 2). The resulting pellet was resuspended in buffer 2 and protein concentration was measured (BCA protein Assay, Pierce). The homogenate was kept cold during the whole procedure. The membranes were kept at −80° C. until use. The assay was performed in a 384 well Optiplate (PerkinElmer) in a total volume of 40 ul. Membranes were mixed with SPA beads. Final concentration of membranes 35 ng/μL final and SPA beads was 0.05 mg/well. Test-compounds were dissolved in DMSO and further diluted in assay buffer (50 mM Hepes, pH 7.4, 1 mM CaCl2, 5 mM MgCl₂, 0.1% OA and 0.02% Tween20). […] The final mixture was incubated with shaking at 400 rpm for 120 min at 25° C. prior to centrifugation (1500 rpm, 10 min). Samples were analyzed on TopCounter™ (Packard). The IC₅₀ was calculated using (one site binding competition analysis) GraphPad Prism5 as a measure of receptor affinity.
Cells were grown in DMEM with 10% FBS and 1% Pen/Strep. Approximately 48 hours after transfection, the cells were harvested and membranes were prepared.
On the technique in general: In a radioligand displacement assay an active substance lowers the binding of a labelled ligand.
Regarding B1, the IC50 was 1.16 nM.

For the molecule B2, the IC50 worked out at 0.288 nM.

As to B3, the IC50 turned out to be 0.152 nM.

(Values after patent publication US20140087995A1 (published 2014).)
